Results on two molecules are retold here after US11242370B2, “Neuregulin-4 compounds and methods of use” (Eli Lilly and Company, priority 2019, dated 2022).

One series addresses T1, rat HER2/HER4 (Rattus norvegicus, UniProt Q62956).
T1 construct: expressed in transfected cells
Kind of series: Rat HER2/HER4 phospho-ERK 1/2 assay, purified proteins, CHO-K1 cells. It counts as cell-based. Particulars: for % Maximal NRG1 activity: maximal signal relative to native human NRG1 per plate; for EC50: purified proteins, phospho-ERK1/2. As for the experimental part: A cell based assay utilizing CHO-K1 cells overexpressing human or rat HER receptors is used to determine activity of NRG4 compounds. CHO-K1 cells (ATCC) are grown in DMEM-F12 3:1 with 5% FBS with 20 mM HEPES, 40 μg/mL L-Proline, lx antibiotics and were split 1:5 every 2-3 days with TripLE Express (Gibco). Cells are transfected with plasmid DNA encoding HER receptors in pairs (hHER2-3, hHER2-4, rHER2-3 and rHER2-4) with Fugene 6 (Promega) according to the manufacturer's instructions. […] Transfected cells are selected with Puromycin (12 ug/ml) and Hygromycin (1 mg/ml) for 3-4 weeks and clonal lines are obtained by limited dilution cloning into 96 well plates. Clonal lines are selected by appropriate gene expression of HER2, HER3 or HER4 by Taqman method. Lines with appropriate receptor expression are confirmed by NRG1 induced phospho-ERK 1/2 responses. Clones are grown up, harvested, aliquoted into cryovials and then frozen under liquid nitrogen for long-term storage.
A phospho-ERK1/2 activity assay is utilized with CHO-K1 cells overexpressing human or rat HER receptors to determine potencies and selectivity of purified NRG4 compounds. CHO-K1 cell lines expressing the human or rat HER receptors are cultured with selection medium (DMEM-F12 3:1 with 5% FBS with 20 mM HEPES, 40 μg/mL L-Proline, 1× antibiotics, 12 μg/mL puromycin, 1 mg/mL Hygromycin B). On Day −1 (the day before phospho-ERK1/2 assay), cells are washed once with PBS, detached with enzyme free cell dissociation solution (GIBCO cat #13151-014), and resuspended in plating medium (DMEM-F12 3:1 with 20 mM HEPES, lx antibiotics, 0.2% FBS). Cells are plated in a 96-well Poly-D-Lysine coated plate (BD cat #354640) at 10,000 cells per 0.1 mL per well. Cells are cultured in a tissue culture incubator at 37° C. 5% CO2 overnight. On Day 1 (the day of pERK1/2 assay), plates are incubated at room temperature for 30 min. The culture media are removed followed by addition of 504, ligand at various concentrations diluted in PBS-20 mM HEPES-0.005% BSA. Native human NRG1 and NRG4 peptides are purchased from Reprokine (Tampa, Fla.). The stimulation time is 30 min (except for hHER2-4 1H6 line in which 15 min is used for stimulation). At the end of stimulation, ligands are removed and 704, Lysis buffer (made according to manufacturer's recipe, Perkin Elmer cat #ALSU-PERK-A10K) is added. Plates are incubated at room temperature for 10 min on plate shaker with 350 rpm agitation, then on ice for 1 hour without shaking. 304, of cell lysis is transferred to a 96-well white Optiplate (Perkin Elmer cat #6002290) for phospho-ERK1/2 assay. Briefly 7.5 μL acceptor beads are added to 30 μL lysis in Optiplate. The plate is covered with aluminum foil and incubated at room temperature for 1 hour on plate shaker with 350 rpm agitation. Then 7.5 μL donor beads are added and the plate is covered with aluminum foil and incubated at room temperature for 2 hours on plate shaker with 350 rpm agitation or at 4° C. for overnight (warm up plate at room temperature for 2 h before reading). Alpha signal data are obtained on an Envision instrument (Alpha Technology-compatible plate reader). Donor beads and acceptor beads are made according to assay protocol. The data shown are generated with either the AlphaScreen SureFire p-ERK1/2 (Thr202/Tyr204) assay kit (Cat #TGRES50k) or the AlphaLISA® SureFire® Ultra™ p-ERK 1/2 (Thr202/Tyr204) assay kit (Perkin Elmer cat #ALSU-PERK-A10K). The activity of the NRG1 peptide was similar in both types of assays. Raw data obtained from the Envision instrument is imported into GraphPad Prism software (version 7). The EC50 value is generated by a variable slope-four parameter dose response curve. The % of maximal NRG1 activity data are generated by expressing the average maximal raw data for the NRG4 compound over the average maximal raw data for the native human NRG1 per plate and multiplying by 100. Data are provided below in Tables 7-9. N values reflect number of independent assays run. […]

Series [1] is described as follows: Plasma pharmacokinetics in rats (toxicology studies). Particulars: rat, in vivo, sc, 0.3 mg/kg. As for the experimental part:
Example 11 is administered in a single 3 mg/kg dose to male and female monkeys by SC bolus injection.

For series [2], the system named is rat model of heart failure with reduced ejection fraction (HFrEF). Put plainly: Rat MI model, captopril, Example 10 or combination, echocardiography. It counts as in vivo. The arrangement: Left Ventricle Diameter (end diastole): unit not given here. The procedure:
A nonclinical efficacy pharmacology study is conducted in a rat model of heart failure with reduced ejection fraction (HFrEF) to evaluate cardiac function and structure changes after captopril treatment, Example 10 treatment or combination treatment.
The left coronary artery is permanently ligated. All rats are individually housed in a temperature and humidity controlled room and maintained on a 12 hour light/dark cycle. Two to three weeks after surgery, rats undergo transthoracic echocardiography for determination of ejection fraction (EF %) and left ventricle dimensions (LVD) using a Vevo 2100 ultrasound system. Rats are randomized across treatment groups according to EF % and LVD.
Measurements of EF % and LVD are expressed as mean values±standard error (SE). Statistical analysis is performed with JMP® 13 software (SAS Institute, Inc.; Cary, N.C.) and Dunnett's Test is used for statistical comparisons across treatment groups. Statistical significance is accepted at P<0.05.
Three weeks after MI surgery, animals are randomized to 2 treatment groups (Placebo or captopril, 2 g/L in drinking water, ad lib) according to EF % and LVD. Three weeks and four weeks after dosing starts, cardiac function (EF %) and structure (LVD) are evaluated by transthoracic echocardiography. Animals are further randomized to additional groups based on cardiac function (EF %) and structure (LVD) to the following groups: Placebo, Example 10, captopril and Example 10+captopril. Animals in the Example 10 groups receive a single injection on week 4 after the 2nd randomization. Cardiac function (EF %) and structure (LVD) are evaluated on week 5 and 6.

For another series, the system named is rats. Kind of series: Toxicology study in rats, cardiac tissue inspection. Particulars: single SC injection of 0.3 mg/kg.
Where [3] appears, read: Week 4 (2nd randomization; before the single injection of Example 10).
[4] abbreviates: Week 5 (single injection of Example 10 on week 4; captopril 2 g/L in drinking water).
Setting [5] is: Week 6 (single injection of Example 10 on week 4; captopril 2 g/L in drinking water).

Marks after values point to notes of the source that are not given here.

T1 sequence (Q62956 26-1308): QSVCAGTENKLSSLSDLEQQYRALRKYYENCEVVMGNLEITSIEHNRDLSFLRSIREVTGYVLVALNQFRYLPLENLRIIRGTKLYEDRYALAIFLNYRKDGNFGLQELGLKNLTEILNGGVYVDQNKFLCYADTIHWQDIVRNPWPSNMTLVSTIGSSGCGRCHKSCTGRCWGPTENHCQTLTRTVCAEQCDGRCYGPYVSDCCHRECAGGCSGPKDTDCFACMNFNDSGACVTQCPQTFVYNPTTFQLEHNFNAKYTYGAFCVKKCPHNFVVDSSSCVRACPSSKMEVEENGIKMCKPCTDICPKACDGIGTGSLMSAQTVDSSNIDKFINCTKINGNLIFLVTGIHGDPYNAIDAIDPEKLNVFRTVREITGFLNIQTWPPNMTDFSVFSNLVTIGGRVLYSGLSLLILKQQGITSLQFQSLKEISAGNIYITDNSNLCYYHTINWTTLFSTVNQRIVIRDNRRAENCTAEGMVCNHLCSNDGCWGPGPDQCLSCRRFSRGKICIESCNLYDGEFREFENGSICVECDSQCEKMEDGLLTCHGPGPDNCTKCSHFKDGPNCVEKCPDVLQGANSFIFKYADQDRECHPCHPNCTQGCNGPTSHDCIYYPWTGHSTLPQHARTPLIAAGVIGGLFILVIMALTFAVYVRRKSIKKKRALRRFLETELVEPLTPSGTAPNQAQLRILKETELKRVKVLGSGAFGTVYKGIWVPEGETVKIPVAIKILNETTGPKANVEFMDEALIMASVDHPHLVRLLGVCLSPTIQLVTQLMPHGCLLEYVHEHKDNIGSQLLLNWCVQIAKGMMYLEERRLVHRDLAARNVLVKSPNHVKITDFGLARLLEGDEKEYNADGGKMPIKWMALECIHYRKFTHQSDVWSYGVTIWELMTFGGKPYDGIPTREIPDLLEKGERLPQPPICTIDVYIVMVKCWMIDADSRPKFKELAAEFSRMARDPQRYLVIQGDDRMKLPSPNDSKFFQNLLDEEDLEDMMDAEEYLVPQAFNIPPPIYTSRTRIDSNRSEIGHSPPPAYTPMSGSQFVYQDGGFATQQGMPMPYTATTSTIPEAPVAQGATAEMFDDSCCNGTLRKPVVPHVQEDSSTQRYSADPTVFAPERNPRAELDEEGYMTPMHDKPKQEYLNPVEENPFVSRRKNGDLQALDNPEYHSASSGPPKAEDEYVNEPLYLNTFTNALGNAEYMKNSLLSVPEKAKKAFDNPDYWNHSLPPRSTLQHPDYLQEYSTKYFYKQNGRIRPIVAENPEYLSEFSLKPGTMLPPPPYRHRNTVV
T1 sequence (P06494 23-1257 partner): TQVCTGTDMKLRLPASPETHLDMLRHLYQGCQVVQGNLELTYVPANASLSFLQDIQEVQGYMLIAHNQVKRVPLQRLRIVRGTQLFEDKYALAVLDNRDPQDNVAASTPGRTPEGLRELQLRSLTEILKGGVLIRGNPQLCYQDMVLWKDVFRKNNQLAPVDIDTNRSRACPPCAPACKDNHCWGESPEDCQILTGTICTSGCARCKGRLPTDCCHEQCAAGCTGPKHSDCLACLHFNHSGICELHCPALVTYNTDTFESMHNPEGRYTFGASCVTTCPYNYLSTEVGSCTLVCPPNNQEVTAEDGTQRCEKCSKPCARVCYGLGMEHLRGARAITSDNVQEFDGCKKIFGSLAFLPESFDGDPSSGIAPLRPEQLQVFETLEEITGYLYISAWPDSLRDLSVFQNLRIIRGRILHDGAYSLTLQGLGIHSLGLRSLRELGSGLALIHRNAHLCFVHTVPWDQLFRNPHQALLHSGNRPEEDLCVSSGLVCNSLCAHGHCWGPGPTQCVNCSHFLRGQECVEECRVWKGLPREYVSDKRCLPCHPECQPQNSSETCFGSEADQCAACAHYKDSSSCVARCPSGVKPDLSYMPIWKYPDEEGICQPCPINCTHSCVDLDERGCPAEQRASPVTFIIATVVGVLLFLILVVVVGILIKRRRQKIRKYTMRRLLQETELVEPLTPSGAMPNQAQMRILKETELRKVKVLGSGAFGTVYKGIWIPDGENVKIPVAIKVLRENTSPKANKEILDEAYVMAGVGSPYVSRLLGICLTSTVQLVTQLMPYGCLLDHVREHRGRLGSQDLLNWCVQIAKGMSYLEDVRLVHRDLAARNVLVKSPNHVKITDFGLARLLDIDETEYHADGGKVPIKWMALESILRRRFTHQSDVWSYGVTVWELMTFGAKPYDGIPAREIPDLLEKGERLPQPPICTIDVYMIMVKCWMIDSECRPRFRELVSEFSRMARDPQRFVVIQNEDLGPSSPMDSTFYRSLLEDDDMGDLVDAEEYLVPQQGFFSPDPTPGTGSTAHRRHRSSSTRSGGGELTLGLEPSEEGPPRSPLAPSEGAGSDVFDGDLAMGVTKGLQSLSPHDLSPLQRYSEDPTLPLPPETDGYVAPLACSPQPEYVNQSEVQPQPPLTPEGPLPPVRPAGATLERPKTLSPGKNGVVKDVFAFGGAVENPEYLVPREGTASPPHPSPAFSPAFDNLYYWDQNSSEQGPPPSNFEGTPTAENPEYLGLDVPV

Take “WT NRG1: wild type human NRG1; native peptide purchased from Reprokine in Tables 7-9; comparator in the screening assays of Tables 4 and 6”: in the series with rat HER2/HER4, the “% Maximal NRG1 activity” value worked out at 100% and the EC50 (commonly the concentration needed to bring the measured effect to its halfway point) came to 0.29 ± 0.05 nM.

B1: Example 10: NRG4 D1G/V22Q/E44K, (GGGGS)3 linker, SEQ ID NO: 19, fused to IgG Fc dimer SEQ ID NO: 6 and 7 (protein)
chain 1: GGGGSGGGGSGGGGSGHEEPCGPSHKSFCLNGGLCYQIPTIPSPFCRCVENYTGARCEKVFL
chain 2: ECPPCPAPPVAGPSVFLFPPKPKDTLMISRTPEVTCVVVDVSHEDPEVQFNWYVDGVEVHNAKTKPREEQFNSTFRVVSVLTVVHQDWLNGKEYKCKVSNKGLPAPIEKTISKTKGQPREPQVYTLPPSREEMTKNQVSLWCLVKGFYPSDIAVEWESNGQPENNYKTTPPVLDSDGSFFLYSKLTVDKSRWQQGNVFSCSVMHEALHNHYTQKSLSLSPG
chain 3: ECPPCPAPPVAGPSVFLFPPKPKDTLMISRTPEVTCVVVDVSHEDPEVQFNWYVDGVEVHNAKTKPREEQFNSTFRVVSVLTVVHQDWLNGKEYKCKVSNKGLPAPIEKTISKTKGQPREPQVYTLPPSREEMTKNQVSLSCAVKGFYPSDIAVEWESNGQPENNYKTTPPVLDSDGSFFLVSKLTVDKSRWQQGNVFSCSVMHEALHNHYTQKSLSLSPG
For the molecule B1, the “duration of detectable plasma concentrations” value in series [1] is more than 168 h. Also, in series [2] (setting [3]), the “Ejection Fraction” value turned out to be 33.3% and the “Left Ventricle Diameter (end diastole)” value turned out to be 9.33. In series [2] (setting [4]), the “Ejection Fraction” value was 46.5* % and the “Left Ventricle Diameter (end diastole)” value is 9.35. In series [2] (setting [5]), the “Ejection Fraction” value was 46.0* % and the “Left Ventricle Diameter (end diastole)” value amounted to 9.01. In the series with rat HER2/HER4, the “% Maximal NRG1 activity” value is 88 ± 7 (N = 2) % and a half-maximal effect (EC50) was put at 0.12 ± 0.04 nM. For the same molecule, the “inspections of tissue (cardiac toxicity)” value in the series with rats was “cardiac degeneration and necrosis”.
